Measurements from publication PMC13438699 (Nature Communications, 2026).

Molecular target: H1 stem (#4900), HA stem construct derived from the A/Brisbane/59/2007 (H1N1) HA (Designed HA stem #4900 from influenza A …, stabilised)
Assay: BLI
Details: both partners purified

Binder	Kd
HB31 wild type (WT) Fab (Fab, V domains shown, also called HB31 WT Fab; HB31 Fab; source: Expi293F, transiently co-transfected, purified (CaptureSelect CH1-XL)) VH: EVQLLESGGGLVQPGGSLRLSCTVSGFTSSNYDMSWVRQAPGKGLEWVSGISGTGRDTYYADSVKGRFTISRDNSKNTLSLQMNSLRADDTAVYFCARDRPVLRYFDWQPYGLDVWGKGTTVTVSS VL: QSALTQPPSASGSPGQSVTISCTGTSSDVGGYNYVSWYQQYPSKAPKLMIYEVSKRPSGVPDRFSGSKSGNTASLTVSGLQAEDEADYYCNSYAGSNLYVFGTGTKVTVL	4.3 nM
HB31 wild type (WT) IgG (antibody, V domains shown, copies: 2 + 2) VH: EVQLLESGGGLVQPGGSLRLSCTVSGFTSSNYDMSWVRQAPGKGLEWVSGISGTGRDTYYADSVKGRFTISRDNSKNTLSLQMNSLRADDTAVYFCARDRPVLRYFDWQPYGLDVWGKGTTVTVSS VL: QSALTQPPSASGSPGQSVTISCTGTSSDVGGYNYVSWYQQYPSKAPKLMIYEVSKRPSGVPDRFSGSKSGNTASLTVSGLQAEDEADYYCNSYAGSNLYVFGTGTKVTVL	2.7 nM
